Source: the DeepSol protein solubility set

Assay: soluble on expression in E. coli; label from the status in PepcDB or PDB records
With “MHHHHHHSSGVDLGTENLYFQSMSRVLQAEELHEKALDPFLLQAEFFEIPMNFVDPKEYDIPGLVRKNRYKTILPNPHSRVCLTSPDPDDPLSSYINANYIRGYGGEEKVYIATQGPIVSTVADFWRMVWQEHTPIIVMITNIEEMNEKCTEYWPEEQVAYDGVEITVQKVIHTEDYRLRLISLKSGTEERGLKHYWFTSWPDQKTPDRAPPLLHLVREVEEAAQQEGPHCAPIIVHCSAGIGRTGCFIATSICCQQLRQEGVVDILKTTCQLRQDRGGMIQTCEQYQFVHHVMSLYEKQLSHQS” the “soluble on expression in E. coli” value was “soluble”.
For “MSLPRLGIILHGVTGRMGYNQHLVRSILAIRDRGGITLQSGERLEIDPIIVGRNRDKMEQLAKRHDIARWSTDLDAALADPNDQIFFDAGTTLMRAELIGRALDAGKHVYCEKPISDDLRTAVKLARKARASGLKHGVVQDKLFLPGLRKLALLRDSGFFGKILSVRGEFGYWVFEGDWGVPAQRPSWNYRKKDGGGIILDMLCHWRYVLDNLFGEVKAVSCLGATHIPSRIDEQGRAYDCDTDDAAYATFELEGGIVAHINSSWAVRVRRDDLVTFQVDGTHGSAVAGLTKCWTQHRVNTPKPVWNPDQPQTIDFYRTWDEVPDTQAFDNGFKAQWEMFLRHVAEDGPWPHGLEAGAKGVQLAELGLKSWAERRWLDVPELEGHHHHHH”, the “soluble on expression in E. coli” value was “not soluble”.
With “MRPQIMPFYIEMGKGDGGITGEDILQNWMLKSNLKNVEILEELPLRPTKLVVAISEEIYPDVYTIEDFKEKVGDREVFIASEFPEIARKYAEKHGLNAIVFDPIGKTEAALLPPMPEADLIIEITEFGTTLKENMCRIIDLVMDKVHSVFIVNKESLKDEEKKQVMENLVTDLKEVIESRNLVSFYFNVPNEDDLRRIIDYLTENGFDPTISPLAKGGAAVHIIVDRSRVKFLKPIIRGMGAKRIATSPVITSGTNRAAQQKPFYLLSGIQREFPSASPFF” the “soluble on expression in E. coli” value was “not soluble”.
For “MTPDPLAPLDLAFWNIESAEHPMHLGALGVFEADSPTAGALAADLLAARAPAVPGLRMRIRDTWQPPMALRRPFAFGGATREPDPRFDPLDHVRLHAPATDFHARAGRLMERPLERGRPPWEAHVLPGADGGSFAVLFKFHHALADGLRALTLAAGVLDPMDLPAPRPRPEQPPRGLLPDVRALPDRLRGALSDAGRALDIGAAAALSTLDVRSSPALTAASSGTRRTAGVSVDLDDVHHVRKTTGGTVNDVLIAVVAGALRRWLDERGDGSEGVAPRALIPVSRRRPRSAHPQGNRLSGYLMRLPVGDPDPLARLGTVRAAMDRNKDAGPGRGAGAVALLADHVPALGHRLGGPLVSGAARLWFDLLVTSVPLPSLGLRLGGHPLTEVYPLAPLARGHSLAVAVSTYRGRVHYGLLADAKAVPDLDRLAVAVAEEVETLLTACRPLEHHHHHH”, the “soluble on expression in E. coli” value was “soluble”.
With “MSLKSVIIGTAGHIDHGKTSLIKALNGFEGDSLKEEQERQITINLSFSNLKLKDKNISFIDVPGHKDLVKTMVSGAFGFSVCLFVVDINEGLKEQSLEHLEILKILDIKNIILVLSKCDLCENIEQKSVEILEELKNLDYPILKVFHTSIKNNQGIEELKNYLYTIENKENDEELIFHYYIDRVFSLKGIGTVVTGSLNEGSITLNEKIICLDTQKELIVKNIQNHDTNLEQIKACNRVALSLNCDYKELKKGYLLSKKGYFKAFKECDALVKAKNLQNSKMIFCVGSRQIECKINILKKLENDEFFVHFSFDKNVFLSFDEAFILLQNNRVIGGGKVLNPLSEPLKKEQKNKFLMFLKNKDFKAAFSFLKDAHKYGFGLLSSYQRFKLSHQKALKLAKELNQVFVDEKNLNVYHLQSLEEIKNFIKFILEKNPYAMLSAHSLALRITWASENFCELGLKEMSNLLDFQNGIYFKKGIDFEKLQEKNNNQMYEILKKQGIKPEAPYNLYDFLELDREGHHHHHH” the “soluble on expression in E. coli” value was “soluble”.
For “MSLSRGRLKIAVPRLQRVANFDDLDPLVAEPDIDLQWIQPGSPIPADVDVVVLPGSKATRTELDLMRREGWDIDIHAHVRRGGRVVGLCAGFQMLGKVVRDPQGIEGPAGETAGLGLLDIETEISGDKRLIEIDAVDRISGCRVVGYEMHMGRTTGAGLARPWLRLEEGGSERAEGAVSADGRVSGGYLHGIFGGDAFRSAWLAQIGAASSGLDFERRVEETLDALADHCESNLDLDALLALAREGHHHHHH”, the “soluble on expression in E. coli” value was “soluble”.
